Source: patent US7966133B2, “Method of identifying a potential substrates of an O-methyltransferase” (The Salk Institute for Biological Studies, priority 2000, dated 2011)
“Also recorded” adds a separate entry of the source.

Experiments:
[1] = aqueous solution; cited from earlier work
[2] = tested on: nod genes; settings: among compounds released from alfalfa roots; via nodD1 and nodD2; cited from earlier work
[3] = tested on: ChOMT; experiment: Qualitative enzyme activity assay, ChOMT (14C-SAM, TLC autoradiography); format: biochemical, Medicago sativa L; settings: 20 μg protein, 500 μM 2′,4,4′-trihydroxychalcone, 500 μM 14C-SAM, 2 hr room temperature; FIG. 7A
[4] = tested on: IOMT; experiment: Qualitative enzyme activity assay, IOMT (14C-SAM, TLC autoradiography); format: biochemical, Medicago sativa L; settings: expressed in E. coli

Molecule | methyltransferase activity of ChOMT His 278 mutants [3] | other results
O=C1c2ccc(O)cc2OC(O)C1c1ccc(O)cc1 (centres unmarked) [2,7,4′-trihydroxyisoflavanone] | – | aqueous stability [1]: lack of aqueous stability; also recorded: unstable in aqueous solution
COc1cc(O)ccc1C(=O)/C=C/c1ccc(O)cc1 [4,4′-dihydroxy-2′-methoxychalcone] | – | transcriptional activation of nod genes [2]: most efficient transcriptional activator
H278L: ChOMT catalytic histidine mutant, His 278 to leucine (protein, listed as Medicago sativa) MGNSYITKEDNQISATSEQTEDSACLSAMVLTTNLVYPAVLNAAIDLNLFEIIAKATPPGAFMSPSEIASKLPASTQHSDLPNRLDRMLRLLASYSVLTSTTRTIEDGGAERVYGLSMVGKYLVPDESRGYLASFTTFLCYPALLQVWMNFKEAVVDEDIDLFKNVHGVTKYEFMGKDKKMNQIFNKSMVDVCATEMKRMLEIYTGFEGISTLVDVGGGSGRNLELIISKYPLIKGINFDLPQVIENAPPLSGIEHVGGDMFASVPQGDAMILKAVCLNWSDEKCIEFLSNCHKALSPNGKVIIVEFILPEEPNTSEESKLVSTLDNLMFITVGGRERTEKQYEKLSKLSGFSKFQVACRAFNSLGVMEFYK | completely eliminated methyltransferase activity | –
H278A: ChOMT catalytic histidine mutant, His 278 to alanine (protein, listed as Medicago sativa) MGNSYITKEDNQISATSEQTEDSACLSAMVLTTNLVYPAVLNAAIDLNLFEIIAKATPPGAFMSPSEIASKLPASTQHSDLPNRLDRMLRLLASYSVLTSTTRTIEDGGAERVYGLSMVGKYLVPDESRGYLASFTTFLCYPALLQVWMNFKEAVVDEDIDLFKNVHGVTKYEFMGKDKKMNQIFNKSMVDVCATEMKRMLEIYTGFEGISTLVDVGGGSGRNLELIISKYPLIKGINFDLPQVIENAPPLSGIEHVGGDMFASVPQGDAMILKAVCANWSDEKCIEFLSNCHKALSPNGKVIIVEFILPEEPNTSEESKLVSTLDNLMFITVGGRERTEKQYEKLSKLSGFSKFQVACRAFNSLGVMEFYK | completely eliminated methyltransferase activity | –
H278Q: ChOMT catalytic histidine mutant, His 278 to glutamine (protein, listed as Medicago sativa) MGNSYITKEDNQISATSEQTEDSACLSAMVLTTNLVYPAVLNAAIDLNLFEIIAKATPPGAFMSPSEIASKLPASTQHSDLPNRLDRMLRLLASYSVLTSTTRTIEDGGAERVYGLSMVGKYLVPDESRGYLASFTTFLCYPALLQVWMNFKEAVVDEDIDLFKNVHGVTKYEFMGKDKKMNQIFNKSMVDVCATEMKRMLEIYTGFEGISTLVDVGGGSGRNLELIISKYPLIKGINFDLPQVIENAPPLSGIEHVGGDMFASVPQGDAMILKAVCQNWSDEKCIEFLSNCHKALSPNGKVIIVEFILPEEPNTSEESKLVSTLDNLMFITVGGRERTEKQYEKLSKLSGFSKFQVACRAFNSLGVMEFYK | completely eliminated methyltransferase activity | –
H278K: ChOMT catalytic histidine mutant, His 278 to lysine (protein, listed as Medicago sativa) MGNSYITKEDNQISATSEQTEDSACLSAMVLTTNLVYPAVLNAAIDLNLFEIIAKATPPGAFMSPSEIASKLPASTQHSDLPNRLDRMLRLLASYSVLTSTTRTIEDGGAERVYGLSMVGKYLVPDESRGYLASFTTFLCYPALLQVWMNFKEAVVDEDIDLFKNVHGVTKYEFMGKDKKMNQIFNKSMVDVCATEMKRMLEIYTGFEGISTLVDVGGGSGRNLELIISKYPLIKGINFDLPQVIENAPPLSGIEHVGGDMFASVPQGDAMILKAVCKNWSDEKCIEFLSNCHKALSPNGKVIIVEFILPEEPNTSEESKLVSTLDNLMFITVGGRERTEKQYEKLSKLSGFSKFQVACRAFNSLGVMEFYK | completely eliminated methyltransferase activity | –
H278N: ChOMT catalytic histidine mutant, His 278 to asparagine (protein, listed as Medicago sativa) MGNSYITKEDNQISATSEQTEDSACLSAMVLTTNLVYPAVLNAAIDLNLFEIIAKATPPGAFMSPSEIASKLPASTQHSDLPNRLDRMLRLLASYSVLTSTTRTIEDGGAERVYGLSMVGKYLVPDESRGYLASFTTFLCYPALLQVWMNFKEAVVDEDIDLFKNVHGVTKYEFMGKDKKMNQIFNKSMVDVCATEMKRMLEIYTGFEGISTLVDVGGGSGRNLELIISKYPLIKGINFDLPQVIENAPPLSGIEHVGGDMFASVPQGDAMILKAVCNNWSDEKCIEFLSNCHKALSPNGKVIIVEFILPEEPNTSEESKLVSTLDNLMFITVGGRERTEKQYEKLSKLSGFSKFQVACRAFNSLGVMEFYK | completely eliminated methyltransferase activity | –
IOMT: Isoflavone O-methyltransferase (SEQ ID NO:4) from Medicago sativa L, recombinant wild type (protein, listed as Medicago sativa) MASSINGRKPSEIFKAQALLYKHIYAFIDSMSLKWAVGMNIPNIIHNHGKPISLSNLVSILQVPSSKIGNVRRLMRYLAHNGFFEIITKEEESYALTVASELLVRGSDLCLAPMVECVLDPTLSGSYHELKKWIYEEDLTLFGVTLGSGFWDFLDKNPEYNTSFNDAMASDSKLINLALRDCDFVFDGLESIVDVGGGTGTTAKIICETFPKLKCIVFDRPQVVENLSGSNNLTYVGGDMFTSIPNADAVLLKYILHNWTDKDCLRILKKCKEAVTNDGKRGKVTIIDMVINEKKDENQVTQIKLLMDVNMACLNGKERNEEEWKKLFIEAGFQHYKISPLTGFLSLIEIYP | – | specific activity of recombinant IOMT [4]: comparable to published values
